Results as given in a protein production outcome set (Wang et al. 2014).

Experiment: label from the status in PepcDB records

| Sequence | protein production |
| --- | --- |
| MGHHHHHHSHMRTISFFNNKGGVGKTTLSTNVAHYFALQGKRVLYVDCDPQCNATQLMLTEEQTESIYLDGLNDEVAERNSLAKTVYAIFVPLREGESQIAAEITPMRSERFGVDVLPGHPALSQIEDLMSDSWQSALGRQTGPFRRIHWAGQLAHAMERDDRYDVIFFDVGPSLGPFNRTVLLGCDAFVTPTATDLFSFHAFGNLARWFDAWVTQYAEIHEGNMAEWKKYS | failed |
| AGHRGQCVGRHREVVAIDNSKATNPHAADSALAGFSSVVWVAGGQLKGAEIDELIVRHAGRIKAVALLGVDRDVIEDSVRTHIPGIPVLSVSETDPRRAMDEAVAWSVSQAEAGDAIVLAPAAASLDMYTGMGQRGDMFATAIAQHLHD | failed |
| MDIVSVALQRYSTKAFDPSKKLTAEEADKIKTLLQYSPSSTNSQPWHFIVASTEEGKARVAKSAAGNYTFNERKMLDASHVVVFCAKTAMDDAWLERVVDQEDADGRFATPEAKAANDKGRRFFADMHRVSLKDDHQWMAKQVYLNVGNFLLGVAAMGLDAVPIEGFDAEVLDAEFGLKEKGYTSLVVVPVGHHSVEDFNAGLPKSRLPLETTLTEV | not failed |
| GHMSPGERFLDWLKRLQGQKAWTAARAAFRRSLAFPPGAYPRAMPYVEPFLAKGDWRQEEREAHYLVAALYALKDGDHQVGRTLARALWEKAQGSASVEKRFLALLEADRDQIAFRLRQAVALVEGGIDFARLLDDLLRWFSPERHVQARWAREYYGAGASEEEKKKEVEA | not failed |
| MRGVYRVMVKVYIENYGCARNRADGEIMAALLYLSGHEIVESPEESEIVVVNSCAVKDPTERKIARRIRELLDNGKKVIVTGCLPHVNPDVIDERVSAILGVKSIDRIVQAVEYAMRGEKLISVPDWKKRNLDKLDFPRLSPRNVYFILPIAEGCLNACTYCATRLARGVLKSYSPEKIIGWVKWAIKQGYKEIWLSAEDTGCYGFDIGTNLAKLIDEITAIEGEFRIRVGMMNPNHVLKFLDELIDAYKDEKVYKFLHLPVQSGDNEILRKMGRMYTVEEFEEIVKAFRREFPELNLHTDIIVGFPGESEEAFQRSVELIKRIRPDKVNVSRYSPRPGTIAAKWKQLPGWVVKERSRLLHRIRLQISYEINRKYIGKKVKVLIHGEGKKGNVDAVTMNYKHIILPEGRKGEFREARVKNAASTYLLGEIIT | failed |
| MQLRTKLVIYSTVCCAFGVLLTLATMKYLFSTSSPEVATPATLPDVQLPELDLAQLQDSVAAIESAIKNTEQFQQAFSLQERLRADQIKHELQKLEQLKQEQLQIKLYKLELLKQGLFNPAPHPANMVPALPVVEQSKLPPLSLDPQAEHTPPIFELVLVILLACSVCALGVAWFTRHLARSLDALEVGLLNFNDNDFSVSIPTNGEGQLKTLAELFNHSAAKLRQERQYIYQRELLLDKVIQSSPNVMLLLNDHQRLMYANDAARHLFQIKGKMEGLSLEELLQELPEALALALKQEKSGLFTMGEDDAETWYLSRGQFLLNNQQHNLILLKQMTRELNRQEVAVWKKVIRIISHELNNSVAPIASMVNSGRLLTKDLDNPKLKLIFDTIESRTNHLSQFIYNYARFAKLPLPQRRKVAWSQLIEQLTQHYPFSLTHELPIEDGYVDQGQMEQVLLNLLKNAHESGSNPEEVTLSIRYQKMVDGGGFSIKIEDRGSGMSEEVLEQALLPFYSTKQSGTGLGLPLCREIIEAHDGSISMHNRTEGGLSVLLWLPQ | failed |
| MMILAWILVIIIISVITKWVVHLLTQRQSIYLTKLVITTSCIIQFIIVFFLMKAIVHYLAQALDVFYR | failed |
| MSNEHQLLVGLLKKLKDDALILPTLPEVAMRVQEVVGRPDSSLKQVAEIIGQDAAISARIIKVANSALYSRGVPAENINSAVTRIGLTQIKSIATSVAMEQLFISTNEMVWEVMDEVWRTSIDVTAAACSLLQIYNKKHPGSGLNYDTLTLAGLVHNIGALPVLTEAEAHPEMFTTIEHLRSLVRKMQGPIGRAVLKSWDFAPEVMEVVERWADLPYLGDHVSYLDFIRAAAFYTGELRAGNELEQRLDVFVKRGLPVSPEDLGSDAFLDSYHSIKASYE | not failed |
| MQRLNLGCGQYPKAGFLNVDVDPLAKADVFHDLSSFPYPFEDARFDLVEMDHVLEHLPSPRDAMREIWRILKPGGTLRLRVPHFSRGFSHYDHKCGFDVTFPLYFDPTFPGGYTGIPFEHVQTRLVWFAQPWLKRQVLGNFAFNVGKMLGMVFDALGNIAPLATSRLFCFWVGGYEEITFELRRPTNTLEHHHHHH | not failed |
| MNSSPPPANSANGDTTNNGENGQDLNLNFLDKIRLSAKRDAKEDEGEELPTELNTINSAGGFLVVSPDKLSVKYTNTNLHGHDVGVVQANKPAPIKCLTYYFEIFVKDSGIKGQIAIGFTKESFKMRRQPGWEVNSCGYHGDDGYLYRGQGKGEPFGPKFTKDDAVGGGINYASQEFFFTKNGTIVGKIPKDIRGHLFPTVAVHSQNEEVLVNFGKKKFAFDIKGYEASERNKQQLAIEKISIPPNIGYGLVKTYLLHYGYEETLDAFNLATKNTVPPIHIDQENAIDEDDSSYALKQRKNLRQLVRNGEIDTALAELQKLYPQIVQDDKSVVCFLLHCQKFIELVGKLEEGVNYGRLELAKFVGLTGFQDIVEDCFALLAYEKPEESSVWYFLEDSQRELVADAVNAAILSTNPNKKDVQRSCHLQSHLEKLLRQLTVCCLERRSLNGDQGETFRLRHVLNNNR | failed |
| MKSTAEDLINGEISSVGVYLYNKLKNYVFEKESSEKTAIRKADFGKIIEEKTDLEEFPAVSKEDIKAICEILYNSKDIEIIIKQLYVFQSDINKSLDEIKEDFVSLFPKTINLENGRINLETGERISFLLKIFEVLDEGIQTALNRAVDEGSSGASNALSNRRHFDMKNKLANGFKEVKKLINESSRAVQEKKIPTEKLPSLFISYAREDDEPFVEKLYQGLKEKGFEIWWDRTAMKNRGRTFLQEIRDAIEDSDLLIAVIGPKAIESDSVRYEWEHALLFSKGVIPVLRMGDYNLLLPEMSKLHCPDFREKRPYEEALEELIRLLKEPIPSLGPIIGIPSLPPNHLPRKNDLNIIKEIILADTVKPVVITSTKQVTALQGMGGMGKSVLSAAFARSAETRRAFYDGIFWITVGLEASESDASGNMRLIGTNLGDDPVNYSSKKEAEASLSKMLSDKVCLIILDDVWKVPQATPFFNALGSRCRLLITTRNDDVVTSLGAQKHEIKVLGKPEALKLLANWCEQEIDSLTSKAAEVARECGYLPLALSICGAMAKSGISWTYILEALQEADLEFIEAQLPNYPDPNVGRALKVSVDFLSLEDPNAVMRYQELVIFPEDELVPETTIAMLWEHTGNLKRRNVEKLLTKLKDRSLLRLDGEAPNRLISLHDLQLDYLRATVGDLTSLHNKLLAAYGKECGNKWSNGSEDGYFFEHLAYHMKEAGRREELHKLLLDFEWMCKKIKCVRLMQEKDGKGIPDLNSLLHDYEFLSNEPKIELVKEAIQLSFDIIAKDEAQFSGQLIGRLQVFNQNEEIRLLLDQATQWKEEDVRLIPLQPCLKPPGGSLKRTFKAHAHPINDVVITSNGKVAISASTDKTIRIWDLNEWIEKGTLKGHLTPVTAIAVSLDGKYAASCSYHIMCLIGDNNIKVWDLEKREEKTTLKGHTHWVQTVAITPDGKYIVSGSLDKTIKFGI | failed |
| MAEITENTKKILEVILNLKEGQVMSYRDVGALAGLPNGARQVSRILHSMSKKYELPWWRVVRSDRTIGLPEPAKSEQMELLKKEGISFTAQGKIIIEDELLLEHHHHHH | not failed |
| MRVTHFFMAAIAVVFVLAGCSTMPKKPDSLTRGDYGYTKEYVSWLIKKEMRENDVTGLSIALVDDQRVVWAQGFGVADEANKVPATPDTIYRVGSISKLFTATAVLQLAEQGKMDIDKPLSTYLPEFSVKSRFPDAGPITPRTLMTHHSGLPSDFLKGMWTNNPEPISNVVNLLKDEYAQYPPNFVFSYSNLGVSLLGNAVERIAGRPYASQIDETVLHPLGMASSSFSTHSDVASRLAKGYRNGKEIGEPQLRDIPAGGLHTNVLDLSRFMEMVFAGGKAGERRILKEETLAEMLSPQNDGVPLDHDFHIGLGWLLTDVGIENAGKVAWHDGATLLYRSQMVILPEQKLGVVVLSNSATAASVVHKVATEALKLAMEAKAGIRQPERSKPVEREADLSPEERQKLAGAYVTPFGTVKVIESGTTLRTEFFGKTFSVVPRNDGRMGLRYRLLGVIPISLGDLDYLGFSTSTVSGHNVLLATAAGKSMLVGEKMEPVLVSEQWQRRVGAYEIANPGDDTMLVDDIRLRYEDGFLRVDYALPLFFDGKLNVSLQPLSDTEAVIRGLGRGMGETIRVVAVNGEEMLQYSGYLLKKKRE | failed |
| MMLSMNRELIYLMLIFALLVIPRALQRFMVPAPLTCLLFGIGTMLVMGGKPHDDVIVLLSTLGISSLFLFAGLEVDLKALRRELWPLGVHLLVYSVALFCLGWLVWRYVGLTWQVAGLLALALLTPSPGFIIDSIGRLGLNEHERFWVVNKAIASELLALTVLFFVLQASDPWQMALSSGVLVALFVCLPLLFVALDRWVVPQAPGSEFSLLVMVGMIAAYATYKIGVYYLVGAFITGLIARLLHQRMPHLASEENLNAVRLFASFFVPFYFFRAGTNVSPQALSFEALGLGILITMVVLPLRIAVIWVQRRVLFGKGEDFRSSLRVSLALVPTLIFTLVLAGILRDRFSISEVLFGALLLYAAFTTLLPSLIFRLLSAWGVPSRSGDQASRETLPSSGMAG | failed |
| MGRFHQYQPRQLSVASVNHADDNDRLPAISLVTPSFNQASFVEKTLESVLGQNYPKLQYIVQDGLSTDGTREILGRYATRNVDIRIETDGGQTDALNKGFAHADGEIMGYLNSDDLLLPGTLCLVGRYFRDNPSVDVIYGNRLIVDEAGREVGRWVLPEHDSEILTFIDYVPQETMFWRRRIWERVGGRFDTDFHFAMDWELLLRFIHAGAVFRHLPGLFGAFRVHGQQKSQAEFLVRGIGEMNGLRLRYGGRNISFVRRIALHWAYLSQHRLADAAFEASLRKNG | failed |
| VINLKELKILHTSDWHLGVTSWTSSRPVDRREELKKALDKVVEEAEKREVDLILLTGDLLHSRNNPSVVALHDLLDYLKRMMRTAPVVVLPGNHDWKGLKLFGNFVTSISSDITFVMSFEPVDVEAKRGQKVRILPFPYPDESEALRKNEGDFRFFLESRLNKLYEEALKKEDFAIFMGHFTVEGLAGYAGIEQGREIIINRALIPSVVDYAALGHIHSFREIQKQPLTIYPGSLIRIDFGEEADEKGAVFVELKRGEPPRYERIDASPLPLKTLYYKKIDTSALKSIRDFCRNFPGYVRVVYEEDSGILPDLMGEIDNLVKIE | not failed |
| MSIPNHVSTTEVVLLELEILLTIISIGAWGGFVSYLLRKDKTEYNSSHESIKYCLTQIVISCFTSFLLSAIAIEKECSFNIVLLAAGLGGVFASPILKILGRRIKKIIEGNNSD | failed |
| MLLAYSMKVVYHLFSGGKDSSLAAWILKKLGYEVKLITITFGVLDNWKFARETAEILGFDHEVIEMPIGILEKATEMCIKEGRAGNAIQYIHERALEYIASREEVKRISDGTRRDDRVPFLDLSKARSLEDRYNVAYIRPLLGLGYKTIRELVNEIFVVVEDESEKVQKGDYETELRELIRRKGHDPSQIFPKRHVQSRVVGLR | not failed |
| MKLESNAFEKAFSSDPAPLGLAGFAFTTFLLSFINAGLIPASGVNVVVPLAIAYGGLAQLITGSWEMRRGNNFGFTAFTSYGSFWIFYALMVILADLHIINALPAVAVGWALILWGIFTLYMWGGAMMASMSLNLTFLFLWLTFVVLGLGAIYSSVALTHAGGYLGILSAFFAAYTSFAIIINSMKPGTIPVGPGMFHKKAGK | failed |
| MKNDLFTEIIGQHTAKLLLTEAIERNQIAPAYLFSSEVEGVGKGKIALAFANAILSRGSRSAMAKHLPPPKGDAQGTASAGESKHLDILQIKPTYTENTSQQKSVPAIRVEQMREVIEFLSTSAVEGKQKVVIIYEADMLNPTAANKLLKTLEEPKTGTFILISSYPQKLLPTIKSRCQIIPFQRLTDEEVISVLKDQQIEATEKILAISSGSPGQAIANIKMLASISQEITKELEVPPDDILKALSLSNSISSWNHQTQLWLLTYLQYNWWQKLKSTKLLAKFTQARKQLLHHVTPRSVWDSLLLP | failed |
